According to US20050137128 (published 2005):
Square brackets hold non-standard residues; d marks the D form. * marks the point of attachment. NHOH = ON*

Molecular target: Aβ1-40 fibril (Homo sapiens)
Test: other, fibril binding 3-point assay

Kd: ~4 nM
Binder: Me-[dL][dV][dF][dF][dL]-{NHOH} [PPI-1800]
